Data: doi:10.1101/2020.06.04.133611 (bioRxiv, 2020)
Each block holds one molecule with its values, some of them ahead of it.

Key:
[1] = biological target: Strep-tagged MlaDΔTM (E. coli K-12); test: SDS-PAGE of the purified protein
cryo-EM structure = biological target: the molecule itself; test: cryo-EM structure

stoichiometry N [1]: 6
Molecule: Strep-tagged MlaDΔTM (domain or fragment)

B1: MlaF (natural protein)
chain: MEQSVANLVDMRDVSFTRGNRCIFDNISLTVPRGKITAIMGPSGIGKTTLLRLIGGQIAPDHGEILFDGENIPAMSRSRLYTVRKRMSMLFQSGALFTDMNVFDNVAYPLREHTQLPAPLLHSTVMMKLEAVGLRGAAKLMPSELSGGMARRAALARAIALEPDLIMFDEPFVGQDPITMGVLVKLISELNSALGVTCVVVSHDVPEVLSIADHAWILADKKIVAHGSAQALQANPDPRVRQFLDGIADGPVPFRYPAGDYHADLLPGS
stoichiometry N (cryo-EM structure): 2

B2: MlaE (natural protein)
chain: MLLNALASLGHKGIKTLRTFGRAGLMLFNALVGKPEFRKHAPLLVRQLYNVGVLSMLIIVVSGVFIGMVLGLQGYLVLTTYSAETSLGMLVALSLLRELGPVVAALLFAGRAGSALTAEIGLMRATEQLSSMEMMAVDPLRRVISPRFWAGVISLPLLTVIFVAVGIWGGSLVGVSWKGIDSGFFWSAMQNAVDWRMDLVNCLIKSVVFAITVTWISLFNGYDAIPTSAGISRATTRTVVHSSLAVLGLDFVLTALMFGN
stoichiometry N (cryo-EM structure): 2
